Test results taken from US20200199241A1 (Chugai, published 2020).
One block for each binder: values may come before it.

Tests used:
human FcγRIa = biological target: T1, human FcγRIa (human, UniProt P12314 16-292, limits assumed); experiment: SPR (Biacore);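 note: antibody variants captured on sensor chip, Fcγ receptor flowed over at 25 °C, bound receptor normalized to amount of captured antibody, expressed relative to reference antibody set as 100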
T1 construct: also called FcgRIa; FcγRI (CD64)
Experimental: (§1) Interaction between each modified antibody and Fcγ receptor prepared in the manner described above was analyzed using the BIACORE™ T100 surface plasmon resonance system (GE Healthcare), BIACORE™ T200 surface plasmon resonance system (GE Healthcare), BIACORE™ A100 surface plasmon resonance system or BIACORE™ 4000 surface plasmon resonance system. HBS-EP+ (GE Healthcare) was used for the running buffer, and measurements were carried out at 25° C. The chips used were chips in which antigen peptides, Protein A (Thermo Scientific), Protein A/G (Thermo Scientific) or Protein L (ACTIGEN® protein (Alltech or BioVision) were immobilized on the Series S Sensor Chip CMS (GE Healthcare) or Series S Sensor Chip CM4 (GE Healthcare) by amine coupling, or chips in which preliminarily biotinylated antigen peptides were allowed to interact and then immobilized on the Series S Sensor Chip SA (certified) (GE Healthcare). The target antibodies were captured on these sensor chips, Fcγ receptor diluted with the running buffer was allowed to interact, followed by measurement of the amount of bound antibody. The amounts bound were compared between antibodies. However, since the amount of Fcγ receptor bound depends on the amount of captured antibody, the values used for comparison were first corrected by dividing the amount of Fcγ receptor bound by the captured amount of each antibody. Through reaction with 10 mM glycine-HCl at pH 1.5, the sensor chips were regenerated by washing off antibody captured on the sensor chips and used repeatedly.
(§2) Binding strength was evaluated according to the following method based on the results of analyzing the interaction with each FcγR. […] That value was then further multiplied by 100, and the resulting value was used as an indicator of relative binding activity to each FcγR.

human FcγRIIIa(F) = biological target: T2, human FcγRIIIa(F) (human, UniProt P08637 17-208, limits assumed); experiment: SPR (Biacore);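 note: antibody variants captured on sensor chip, Fcγ receptor flowed over at 25 °C, bound receptor normalized to amount of captured antibody, expressed relative to reference antibody set as 100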
T2 construct: also called FcgRIIIaF; allotype F158
T2 sequence (P08637 other isoform, or with tags, fused parts or gaps limits assumed): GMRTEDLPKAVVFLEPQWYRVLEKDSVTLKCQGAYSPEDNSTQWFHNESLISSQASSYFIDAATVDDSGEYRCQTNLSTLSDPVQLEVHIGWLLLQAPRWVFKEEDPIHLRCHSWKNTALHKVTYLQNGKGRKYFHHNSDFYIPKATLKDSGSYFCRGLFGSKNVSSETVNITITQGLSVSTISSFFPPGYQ
Experimental: as §1, §2

human FcγRIIa(H) = biological target: T3, human FcγRIIa(H) (human, UniProt P12318 36-217); experiment: SPR (Biacore);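 note: antibody variants captured on sensor chip, Fcγ receptor flowed over at 25 °C, bound receptor normalized to amount of captured antibody, expressed relative to reference antibody set as 100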
T3 construct: also called FcgRIIaH; FcγRIIa type H
T3 sequence: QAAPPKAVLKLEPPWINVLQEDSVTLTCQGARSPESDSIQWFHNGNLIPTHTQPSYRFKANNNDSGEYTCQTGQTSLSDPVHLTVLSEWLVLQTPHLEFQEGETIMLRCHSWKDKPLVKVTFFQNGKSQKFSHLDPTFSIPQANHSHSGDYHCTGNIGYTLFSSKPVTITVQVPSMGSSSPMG
Experimental: as §1, §2

human FcγRIIb = biological target: T4, human FcγRIIb (human, UniProt P31994 43-217, limits assumed); experiment: SPR (Biacore);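 note: antibody variants captured on sensor chip, Fcγ receptor flowed over at 25 °C, bound receptor normalized to amount of captured antibody, expressed relative to reference antibody set as 100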
T4 construct: also called FcgRIIb
T4 sequence: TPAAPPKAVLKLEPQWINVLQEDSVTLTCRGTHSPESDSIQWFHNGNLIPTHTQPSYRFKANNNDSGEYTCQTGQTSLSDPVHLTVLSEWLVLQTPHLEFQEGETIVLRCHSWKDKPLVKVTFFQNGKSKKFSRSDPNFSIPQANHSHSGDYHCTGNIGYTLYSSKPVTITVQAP
Experimental: as §1, §2

[1] = biological target: T5, soluble human FcRn complexed with β2-microglobulin (human, UniProt P61769 21-119, limits assumed); experiment: Biacore SPR, pH 7.0;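 note: test antibodies captured on a Protein L chip with human FcRn flowed over as analyte, KD obtained as the ratio of dissociation to association rate constants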
T5 construct: also called hFcRn

T1 sequence (P12314 16-292 limits assumed): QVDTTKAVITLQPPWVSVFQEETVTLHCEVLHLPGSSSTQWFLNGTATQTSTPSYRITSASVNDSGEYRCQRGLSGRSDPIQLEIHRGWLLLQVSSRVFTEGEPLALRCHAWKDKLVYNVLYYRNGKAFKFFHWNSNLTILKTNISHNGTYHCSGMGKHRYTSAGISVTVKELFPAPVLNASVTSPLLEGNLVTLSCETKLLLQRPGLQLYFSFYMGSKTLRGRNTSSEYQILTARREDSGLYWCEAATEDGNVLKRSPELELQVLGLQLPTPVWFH

B2: IgG1-F1370 (antibody)
heavy: QVQLQESGPGLVKPSETLSLTCAVSGHSISHDHAWSWVRQPPGEGLEWIGFISYSGITNYNPSLQGRVTISRDNSKNTLYLQMNSLRAEDTAVYYCARSLARTTAMDYWGEGTLVTVSSASTKGPSVFPLAPSSKSTSGGTAALGCLVKDYFPEPVTVSWNSGALTSGVHTFPAVLQSSGLYSLSSVVTVPSSSLGTQTYICNVNHKPSNTKVDKKVEPKSCDKTHTCPPCPAPELRGGPKVFLFPPKPKDTLYITREPEVTCVVVDVSHEDPEVKFNWYVDGVEVHNAKTKPREEQYNSTYRVVSVLTVLHQDWLNGKEYKCKVSNKALPAPIEKTISKAKGQPREPQVYTLPPSRDELTKNQVSLTCLVKGFYPSDIAVEWESNGQPENNYKTTPPVLDSDGSFFLYSKLTVDKSRWQQGNVFSCSVMHEALDYHVTKKELSLSP
light: not shown
notes: EU numbering; copies: 2 + 2
Kd [1]: 91.4 nM

B6: IgG1-F1374 (antibody)
heavy: QVQLQESGPGLVKPSETLSLTCAVSGHSISHDHAWSWVRQPPGEGLEWIGFISYSGITNYNPSLQGRVTISRDNSKNTLYLQMNSLRAEDTAVYYCARSLARTTAMDYWGEGTLVTVSSASTKGPSVFPLAPSSKSTSGGTAALGCLVKDYFPEPVTVSWNSGALTSGVHTFPAVLQSSGLYSLSSVVTVPSSSLGTQTYICNVNHKPSNTKVDKKVEPKSCDKTHTCPPCPAPELRGGPKVFLFPPKPKDTLYITREPEVTCVVVDVSHEDPEVKFNWYVDGVEVHNAKTKPREEQYNSTYRVVSVLTVLHQDWLNGKEYKCKVSNKALPAPIEKTISKAKGQPREPQVYTLPPSRDELTKNQVSLTCLVKGFYPSDIAVEWESNGQPENNYKTTPPVLDSDGSFFLYSKLTVDKSRWQQGNVFSCSVMHEALDYHFTRKELSLSP
light: not shown
notes: EU numbering; copies: 2 + 2
Kd [1]: 120 nM

B9: IgG1-F1377 (antibody)
heavy: QVQLQESGPGLVKPSETLSLTCAVSGHSISHDHAWSWVRQPPGEGLEWIGFISYSGITNYNPSLQGRVTISRDNSKNTLYLQMNSLRAEDTAVYYCARSLARTTAMDYWGEGTLVTVSSASTKGPSVFPLAPSSKSTSGGTAALGCLVKDYFPEPVTVSWNSGALTSGVHTFPAVLQSSGLYSLSSVVTVPSSSLGTQTYICNVNHKPSNTKVDKKVEPKSCDKTHTCPPCPAPELRGGPKVFLFPPKPKDTLYISREPEVTCVVVDVSHEDPEVKFNWYVDGVEVHNAKTKPREEQYNSTYRVVSVLTVLHQDWLNGKEYKCKVSNKALPAPIEKTISKAKGQPREPQVYTLPPSRDELTKNQVSLTCLVKGFYPSDIAVEWESNGQPENNYKTTPPVLDSDGSFFLYSKLTVDKSRWQQGNVFSCSVMHEALHYHVTQKSLSLSP
light: not shown
notes: EU numbering; copies: 2 + 2
Kd [1]: 82.7 nM

B10: IgG1-F1378 (antibody)
heavy: QVQLQESGPGLVKPSETLSLTCAVSGHSISHDHAWSWVRQPPGEGLEWIGFISYSGITNYNPSLQGRVTISRDNSKNTLYLQMNSLRAEDTAVYYCARSLARTTAMDYWGEGTLVTVSSASTKGPSVFPLAPSSKSTSGGTAALGCLVKDYFPEPVTVSWNSGALTSGVHTFPAVLQSSGLYSLSSVVTVPSSSLGTQTYICNVNHKPSNTKVDKKVEPKSCDKTHTCPPCPAPELRGGPKVFLFPPKPKDTLYISRTPEVTCVVVDVSHEDPEVKFNWYVDGVEVHNAKTKPREEQYNSTYRVVSVLTVLHQDWLNGKEYKCKVSNKALPAPIEKTISKAKGQPREPQVYTLPPSRDELTKNQVSLTCLVKGFYPSDIAVEWESNGQPENNYKTTPPVLDSDGSFFLYSKLTVDKSRWQQGNVFSCSVMHEALHYHTTQKSLSLSP
light: not shown
notes: EU numbering; copies: 2 + 2
Kd [1]: 361 nM

B13: GpH7-B3 variant V266F/GpL16-k0 (antibody, human IgG1)
heavy: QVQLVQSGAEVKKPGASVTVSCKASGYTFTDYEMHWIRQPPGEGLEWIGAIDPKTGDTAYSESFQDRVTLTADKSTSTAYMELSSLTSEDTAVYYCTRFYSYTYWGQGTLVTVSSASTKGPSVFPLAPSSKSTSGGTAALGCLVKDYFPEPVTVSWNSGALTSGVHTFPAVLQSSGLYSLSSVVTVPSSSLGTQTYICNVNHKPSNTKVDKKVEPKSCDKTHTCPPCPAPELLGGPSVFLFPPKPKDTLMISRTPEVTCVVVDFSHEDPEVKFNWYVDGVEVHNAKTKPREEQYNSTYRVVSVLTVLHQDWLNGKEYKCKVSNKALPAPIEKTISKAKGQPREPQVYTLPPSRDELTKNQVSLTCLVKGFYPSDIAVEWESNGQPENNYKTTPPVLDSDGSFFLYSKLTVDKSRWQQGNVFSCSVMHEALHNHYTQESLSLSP
light: DIVMTQSPLSLPVTPGEPASISCQASESLVHSNRNTYLHWYLQKPGQSPQLLIYKVSNRFSGVPDRFSGSGSGTDFTLKISRVEAEDVGVYYCSQNTHVPPTFGQGTKVEIE
notes: copies: 2 + 2
relative binding activity (human FcγRIa): 80 % of GpH7-B3/GpL16-k0 | relative binding activity (human FcγRIIIa(F)): 2 % of GpH7-B3/GpL16-k0 | relative binding activity (human FcγRIIb): 88 % of GpH7-B3/GpL16-k0

Other lines, results leading:

relative binding activity (human FcγRIa): 28 % of GpH7-B3/GpL16-k0 | relative binding activity (human FcγRIIIa(F)): 11 % of GpH7-B3/GpL16-k0 | relative binding activity (human FcγRIIa(H)): 11 % of GpH7-B3/GpL16-k0 | relative binding activity (human FcγRIIb): 10 % of GpH7-B3/GpL16-k0
B1: GpH7-B3 variant L234G/GpL16-k0 (antibody, human IgG1)
heavy: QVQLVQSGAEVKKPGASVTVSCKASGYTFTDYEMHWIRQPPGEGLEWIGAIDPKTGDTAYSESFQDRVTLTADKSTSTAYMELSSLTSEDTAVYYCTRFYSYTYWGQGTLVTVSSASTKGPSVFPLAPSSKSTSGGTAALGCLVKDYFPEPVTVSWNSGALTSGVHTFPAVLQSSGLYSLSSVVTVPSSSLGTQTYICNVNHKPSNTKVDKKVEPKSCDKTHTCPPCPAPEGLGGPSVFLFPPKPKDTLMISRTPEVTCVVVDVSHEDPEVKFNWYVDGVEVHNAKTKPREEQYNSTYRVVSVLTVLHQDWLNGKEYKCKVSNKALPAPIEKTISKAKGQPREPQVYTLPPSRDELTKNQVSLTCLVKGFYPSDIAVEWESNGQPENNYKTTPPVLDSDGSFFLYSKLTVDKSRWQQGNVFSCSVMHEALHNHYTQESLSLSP
light: DIVMTQSPLSLPVTPGEPASISCQASESLVHSNRNTYLHWYLQKPGQSPQLLIYKVSNRFSGVPDRFSGSGSGTDFTLKISRVEAEDVGVYYCSQNTHVPPTFGQGTKVEIE
notes: copies: 2 + 2

Kd [1]: 109 nM
B3: IgG1-F1371 (antibody)
heavy: QVQLQESGPGLVKPSETLSLTCAVSGHSISHDHAWSWVRQPPGEGLEWIGFISYSGITNYNPSLQGRVTISRDNSKNTLYLQMNSLRAEDTAVYYCARSLARTTAMDYWGEGTLVTVSSASTKGPSVFPLAPSSKSTSGGTAALGCLVKDYFPEPVTVSWNSGALTSGVHTFPAVLQSSGLYSLSSVVTVPSSSLGTQTYICNVNHKPSNTKVDKKVEPKSCDKTHTCPPCPAPELRGGPKVFLFPPKPKDTLYITREPEVTCVVVDVSHEDPEVKFNWYVDGVEVHNAKTKPREEQYNSTYRVVSVLTVLHQDWLNGKEYKCKVSNKALPAPIEKTISKAKGQPREPQVYTLPPSRDELTKNQVSLTCLVKGFYPSDIAVEWESNGQPENNYKTTPPVLDSDGSFFLYSKLTVDKSRWQQGNVFSCSVMHEALDYHVTRKELSLSP
light: not shown
notes: EU numbering; copies: 2 + 2

Kd [1]: 228 nM
B4: IgG1-F1372 (antibody)
heavy: QVQLQESGPGLVKPSETLSLTCAVSGHSISHDHAWSWVRQPPGEGLEWIGFISYSGITNYNPSLQGRVTISRDNSKNTLYLQMNSLRAEDTAVYYCARSLARTTAMDYWGEGTLVTVSSASTKGPSVFPLAPSSKSTSGGTAALGCLVKDYFPEPVTVSWNSGALTSGVHTFPAVLQSSGLYSLSSVVTVPSSSLGTQTYICNVNHKPSNTKVDKKVEPKSCDKTHTCPPCPAPELRGGPKVFLFPPKPKDTLYITREPEVTCVVVDVSHEDPEVKFNWYVDGVEVHNAKTKPREEQYNSTYRVVSVLTVLHQDWLNGKEYKCKVSNKALPAPIEKTISKAKGQPREPQVYTLPPSRDELTKNQVSLTCLVKGFYPSDIAVEWESNGQPENNYKTTPPVLDSDGSFFLYSKLTVDKSRWQQGNVFSCSVMHEALDYHTTRKELSLSP
light: not shown
notes: EU numbering; copies: 2 + 2

Kd [1]: 86.7 nM
B5: IgG1-F1373 (antibody)
heavy: QVQLQESGPGLVKPSETLSLTCAVSGHSISHDHAWSWVRQPPGEGLEWIGFISYSGITNYNPSLQGRVTISRDNSKNTLYLQMNSLRAEDTAVYYCARSLARTTAMDYWGEGTLVTVSSASTKGPSVFPLAPSSKSTSGGTAALGCLVKDYFPEPVTVSWNSGALTSGVHTFPAVLQSSGLYSLSSVVTVPSSSLGTQTYICNVNHKPSNTKVDKKVEPKSCDKTHTCPPCPAPELRGGPKVFLFPPKPKDTLYITREPEVTCVVVDVSHEDPEVKFNWYVDGVEVHNAKTKPREEQYNSTYRVVSVLTVLHQDWLNGKEYKCKVSNKALPAPIEKTISKAKGQPREPQVYTLPPSRDELTKNQVSLTCLVKGFYPSDIAVEWESNGQPENNYKTTPPVLDSDGSFFLYSKLTVDKSRWQQGNVFSCSVMHEALDYHFTKKELSLSP
light: not shown
notes: EU numbering; copies: 2 + 2

Kd [1]: 103 nM
B7: IgG1-F1375 (antibody)
heavy: QVQLQESGPGLVKPSETLSLTCAVSGHSISHDHAWSWVRQPPGEGLEWIGFISYSGITNYNPSLQGRVTISRDNSKNTLYLQMNSLRAEDTAVYYCARSLARTTAMDYWGEGTLVTVSSASTKGPSVFPLAPSSKSTSGGTAALGCLVKDYFPEPVTVSWNSGALTSGVHTFPAVLQSSGLYSLSSVVTVPSSSLGTQTYICNVNHKPSNTKVDKKVEPKSCDKTHTCPPCPAPELRGGPKVFLFPPKPKDTLYITRTPEVTCVVVDVSHEDPEVKFNWYVDGVEVHNAKTKPREEQYNSTYRVVSVLTVLHQDWLNGKEYKCKVSNKALPAPIEKTISKAKGQPREPQVYTLPPSRDELTKNQVSLTCLVKGFYPSDIAVEWESNGQPENNYKTTPPVLDSDGSFFLYSKLTVDKSRWQQGNVFSCSVMHEALHYHVTQKSLSLSP
light: not shown
notes: EU numbering; copies: 2 + 2

Kd [1]: 90.9 nM
B8: IgG1-F1376 (antibody)
heavy: QVQLQESGPGLVKPSETLSLTCAVSGHSISHDHAWSWVRQPPGEGLEWIGFISYSGITNYNPSLQGRVTISRDNSKNTLYLQMNSLRAEDTAVYYCARSLARTTAMDYWGEGTLVTVSSASTKGPSVFPLAPSSKSTSGGTAALGCLVKDYFPEPVTVSWNSGALTSGVHTFPAVLQSSGLYSLSSVVTVPSSSLGTQTYICNVNHKPSNTKVDKKVEPKSCDKTHTCPPCPAPELRGGPKVFLFPPKPKDTLYITREPEVTCVVVDVSHEDPEVKFNWYVDGVEVHNAKTKPREEQYNSTYRVVSVLTVLHQDWLNGKEYKCKVSNKALPAPIEKTISKAKGQPREPQVYTLPPSRDELTKNQVSLTCLVKGFYPSDIAVEWESNGQPENNYKTTPPVLDSDGSFFLYSKLTVDKSRWQQGNVFSCSVMHEALHYHVTQKSLSLSP
light: not shown
notes: EU numbering; copies: 2 + 2

Kd [1]: 285 nM
B11: IgG1-F1379 (antibody)
heavy: QVQLQESGPGLVKPSETLSLTCAVSGHSISHDHAWSWVRQPPGEGLEWIGFISYSGITNYNPSLQGRVTISRDNSKNTLYLQMNSLRAEDTAVYYCARSLARTTAMDYWGEGTLVTVSSASTKGPSVFPLAPSSKSTSGGTAALGCLVKDYFPEPVTVSWNSGALTSGVHTFPAVLQSSGLYSLSSVVTVPSSSLGTQTYICNVNHKPSNTKVDKKVEPKSCDKTHTCPPCPAPELRGGPKVFLFPPKPKDTLYISRTPEVTCVVVDVSHEDPEVKFNWYVDGVEVHNAKTKPREEQYNSTYRVVSVLTVLHQDWLNGKEYKCKVSNKALPAPIEKTISKAKGQPREPQVYTLPPSRDELTKNQVSLTCLVKGFYPSDIAVEWESNGQPENNYKTTPPVLDSDGSFFLYSKLTVDKSRWQQGNVFSCSVMHEALHYHFTQKSLSLSP
light: not shown
notes: EU numbering; copies: 2 + 2

relative binding activity (human FcγRIa): 13 % of GpH7-B3/GpL16-k0 | relative binding activity (human FcγRIIIa(F)): 1 % of GpH7-B3/GpL16-k0 | relative binding activity (human FcγRIIa(H)): 18 % of GpH7-B3/GpL16-k0 | relative binding activity (human FcγRIIb): 19 % of GpH7-B3/GpL16-k0
B12: GpH7-B3 variant G236K/GpL16-k0 (antibody, human IgG1)
heavy: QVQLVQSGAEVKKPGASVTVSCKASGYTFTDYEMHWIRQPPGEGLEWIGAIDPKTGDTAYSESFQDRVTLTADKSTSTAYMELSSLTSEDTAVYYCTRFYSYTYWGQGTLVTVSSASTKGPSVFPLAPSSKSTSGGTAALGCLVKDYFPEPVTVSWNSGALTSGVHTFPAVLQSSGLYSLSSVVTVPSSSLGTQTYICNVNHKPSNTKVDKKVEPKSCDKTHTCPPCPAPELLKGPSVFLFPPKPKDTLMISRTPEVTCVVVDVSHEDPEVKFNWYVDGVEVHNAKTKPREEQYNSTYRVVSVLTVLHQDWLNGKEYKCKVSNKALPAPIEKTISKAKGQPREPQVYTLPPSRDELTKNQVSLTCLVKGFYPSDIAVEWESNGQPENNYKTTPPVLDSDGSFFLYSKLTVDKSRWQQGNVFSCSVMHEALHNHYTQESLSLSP
light: DIVMTQSPLSLPVTPGEPASISCQASESLVHSNRNTYLHWYLQKPGQSPQLLIYKVSNRFSGVPDRFSGSGSGTDFTLKISRVEAEDVGVYYCSQNTHVPPTFGQGTKVEIE
notes: copies: 2 + 2
